According to patent US20260193316A1:

Columns and labels:
Test in all cases: cell-based or functional assay
[1] = target: C1C252 (human) (UniProt P11836)
[2] = target: C1C3 (human) (UniProt P11836)
[3] = target: CD20WT (wild type amino acidic sequence of human CD20) (human) (UniProt P11836)

Measured: reduction in the hCD20+ cell population in mice (GFP+ T cells in blood)

2H7 mouse anti-human CD20 antibody
65%: all assays above
